Data set [1] is described as follows: Western blot, KG1a-TWIST1 and SKM1. The note with it: glycan lost; control: untreated cells. A general note: In western blotting, separated proteins are transferred to a membrane and probed.
The nature of data set [2]: CHX chase, TWIST1 stability, KG1a-TWIST1 and SKM1. The note with it: glycan lost; control: untreated cells.
Data set [3] is described as follows: IP / ubiquitin blot, KG1a-TWIST1 and SKM1. Conditions: glycan lost; control: non-treated cells.
Data set [4] in a line: IP / ubiquitin blot, HEK-293T. Conditions: glycan lost; control: WT flag-TWIST1.
The next data set is described as follows: Western blot, HEK-293T. The note with it: glycan lost; control: WT flag-TWIST1.
The nature of data set [5]: CHX chase, TWIST1 stability, HEK-293T. Conditions: glycan lost; control: WT flag-TWIST1.

B1: TWIST1: OSMI-1 (protein)
parent chain: MMQDVSSSPVSPADDSLSNSEEEPDRQQPPSGKRGGRKRRSSRRSAGGGAGPGGAAGGGVGGGDEPGSPAQGKRGKKSAGCGGGGGAGGGGGSSSGGGSPQSYEELQTQRVMANVRERQRTQSLNEAFAALRKIIPTLPSDKLSKIQTLKLAARYIDFLYQVLQSDELDSKMASCSYVAHERLSYAFSVWRMEGAWSMSASH
B1: the expression_or_secretion result in data set [1] was “decreases”. Also, the degradation_or_half_life entry in data set [2] is reported as “decreases”. Further, the “other: ubiquitination” value in data set [3] is listed as “increases”.

B2: TWIST1: S31A (protein)
parent chain: MMQDVSSSPVSPADDSLSNSEEEPDRQQPPSGKRGGRKRRSSRRSAGGGAGPGGAAGGGVGGGDEPGSPAQGKRGKKSAGCGGGGGAGGGGGSSSGGGSPQSYEELQTQRVMANVRERQRTQSLNEAFAALRKIIPTLPSDKLSKIQTLKLAARYIDFLYQVLQSDELDSKMASCSYVAHERLSYAFSVWRMEGAWSMSASH
On to B2, for which the “other: ubiquitination” value in data set [4] is “increases”. The expression_or_secretion result in the data set “Western blot, HEK-293T” is on record as “decreases”. Besides, the degradation_or_half_life entry in data set [5] is listed as “decreases”.

The values above are taken from PMC10514931.
